Laboratory results reported in article PMC3504009 (PLoS ONE, 2012).

Target: T1, YscUCC, C-terminal polypeptide of the cleaved cytosolic domain YscUC of YscU, wild type (Y. pseudotuberculosis, UniProt P69987 264-354)
T1 sequence: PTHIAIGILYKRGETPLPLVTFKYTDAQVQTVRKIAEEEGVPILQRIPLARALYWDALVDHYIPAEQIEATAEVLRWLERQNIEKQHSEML
Assay: circular dichroism, dissociation kinetics
Details: both partners purified

B1: YscUCN, N-terminal cytoplasmic polypeptide of the cleaved cytosolic domain YscUC of YscU (domain or fragment)
chain: IKELKMSKDEIKREYKEMEGSPEIKSKRRQFHQEIQSRNMRENVKRSSVVVAN
binding result: binds
